Results taken from publication PMC9288967.

Molecular target: SARS-CoV-2 spike RBD (wild type) (SARS-CoV-2) (UniProt P0DTC2)
Assay: cross-linking

Substance	kobs (apparent first-order constant of cross-linking) [h⁻¹]
mNb6(108FFY) (VHH)	0.244
mNb6(108FSY) (VHH)	0.102
